These results are taken from paper PMC9482650, “Quantitative fragmentomics allow affinity mapping of interactomes” (Nature Communications, 2022).

Common to all, as to test: holdup assay
What all share (parameters): key: below the threshold = too weak to quantify, mostly under pKd 3.1 to 4

In test [1] the target is GORASP2, Q9H8Y8.
Test [2] addresses HTRA2, O43464.
Test [3] concerns the target T1, SIPA1L2, Q9P2F8.
T1 sequence (Q9P2F8 945-1036, limits assumed, looked up): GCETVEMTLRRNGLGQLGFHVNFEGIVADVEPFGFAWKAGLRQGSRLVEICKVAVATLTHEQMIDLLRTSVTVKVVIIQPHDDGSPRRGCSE

The target in test [4] is Inadl_4, Q8NI35.
For test [5], the target named is T2, SNTA1, Q13424.
T2 sequence (Q13424 82-180, limits assumed, looked up): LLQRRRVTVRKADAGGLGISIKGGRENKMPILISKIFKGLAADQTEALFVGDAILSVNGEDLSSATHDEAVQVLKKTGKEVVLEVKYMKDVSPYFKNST

Test [6] addresses T3, TX1BP3, O14907.
T3 sequence (O14907 10-122, limits assumed, looked up): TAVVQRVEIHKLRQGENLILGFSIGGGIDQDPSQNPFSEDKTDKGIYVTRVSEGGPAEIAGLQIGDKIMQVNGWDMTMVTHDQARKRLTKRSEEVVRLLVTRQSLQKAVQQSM

Test [7] has as its target T4, GRIP1_3, Q9Y3R0.
T4 sequence (Q9Y3R0 247-346, limits assumed, looked up): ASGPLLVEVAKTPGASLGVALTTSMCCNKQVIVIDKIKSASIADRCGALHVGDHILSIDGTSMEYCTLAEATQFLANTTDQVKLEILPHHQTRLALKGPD

Test [8] deals with T5, MPDZ_10, O75970.
T5 sequence (O75970 1624-1722, limits assumed, looked up): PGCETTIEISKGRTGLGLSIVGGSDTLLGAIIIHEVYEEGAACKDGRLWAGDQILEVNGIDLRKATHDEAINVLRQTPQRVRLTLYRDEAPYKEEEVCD

The target of test [9] is T6, TJP3_3, O95049.
T6 sequence (O95049 375-456, limits assumed, looked up): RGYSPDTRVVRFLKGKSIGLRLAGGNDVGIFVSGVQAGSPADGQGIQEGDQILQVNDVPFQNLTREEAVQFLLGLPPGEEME

The target of test [10] is T7, LNX2_2, Q8N448.
T7 sequence (Q8N448 334-432, limits assumed, looked up): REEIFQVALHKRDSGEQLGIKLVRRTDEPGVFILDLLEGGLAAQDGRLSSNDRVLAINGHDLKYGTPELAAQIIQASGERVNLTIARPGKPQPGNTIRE

The target in test [11] is T8, CARD11, Q9BXL7.
T8 sequence (Q9BXL7 662-765, limits assumed, looked up): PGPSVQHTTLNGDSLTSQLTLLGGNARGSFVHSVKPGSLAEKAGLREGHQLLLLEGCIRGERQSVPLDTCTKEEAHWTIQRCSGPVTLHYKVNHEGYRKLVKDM

The target of test [12] is TJP1_2, Q07157.
Test [13] has as its target GRIP2_5, Q9C0E4.
In test [14] the target is T9, DFNB31_2, Q9P202.
T9 sequence (Q9P202 274-371, limits assumed, looked up): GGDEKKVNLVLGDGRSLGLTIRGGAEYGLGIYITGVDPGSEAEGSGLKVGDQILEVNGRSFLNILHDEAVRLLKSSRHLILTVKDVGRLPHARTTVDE

Test [15] addresses T10, GRIP1_5, Q9Y3R0.
T10 sequence (Q9Y3R0 568-668, limits assumed, looked up): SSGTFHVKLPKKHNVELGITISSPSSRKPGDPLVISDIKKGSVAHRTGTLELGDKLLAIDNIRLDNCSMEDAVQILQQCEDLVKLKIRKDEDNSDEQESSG

In test [16] the target is DLG2_3, Q15700.
For test [17], the target named is AHNAK1, Q09666.
For test [18], the target named is T11, MPP6, Q9NZW5.
T11 sequence (Q9NZW5 125-219, limits assumed, looked up): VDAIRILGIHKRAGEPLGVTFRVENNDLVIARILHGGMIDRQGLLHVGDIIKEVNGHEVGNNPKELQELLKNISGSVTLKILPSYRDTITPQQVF

In test [19] the target is T12, PTPN13_1, Q12923.
T12 sequence (Q12923 1088-1188, limits assumed, looked up): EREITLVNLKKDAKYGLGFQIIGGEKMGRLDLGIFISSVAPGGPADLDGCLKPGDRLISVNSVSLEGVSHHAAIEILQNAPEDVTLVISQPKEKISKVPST

Test [20] concerns the target T13, APBA1_1, Q02410.
T13 sequence (Q02410 651-752, limits assumed, looked up): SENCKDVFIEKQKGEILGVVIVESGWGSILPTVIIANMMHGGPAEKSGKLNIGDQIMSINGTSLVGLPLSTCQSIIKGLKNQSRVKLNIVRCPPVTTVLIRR

Test [21] deals with T14, GRIP1_2, Q9Y3R0.
T14 sequence (Q9Y3R0 145-248, limits assumed, looked up): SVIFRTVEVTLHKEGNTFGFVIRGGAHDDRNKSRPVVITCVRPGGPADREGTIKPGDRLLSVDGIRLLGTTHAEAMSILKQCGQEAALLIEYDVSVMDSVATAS

The target of test [22] is GRIP2_3, Q9C0E4.
Where [23] appears, read: plain residues with an end cap or a label only (N-terminal biotin on a linker: ttds).
Where [24] appears, read: plain residues with an end cap or a label only (N-terminal biotin on a linker: ahx).
Where [25] appears, read: plain residues with an end cap or a label only (N-terminal biotin on a linker: none).

Sequence of Inadl_4, Q8NI35 (Q8NI35 547-651): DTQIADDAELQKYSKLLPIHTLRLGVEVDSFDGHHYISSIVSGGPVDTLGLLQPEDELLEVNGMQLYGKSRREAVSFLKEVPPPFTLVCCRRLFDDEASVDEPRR
Sequence of TJP1_2, Q07157 (Q07157 181-274): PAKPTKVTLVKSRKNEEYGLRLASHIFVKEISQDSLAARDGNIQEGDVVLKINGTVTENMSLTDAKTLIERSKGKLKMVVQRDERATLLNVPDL
Sequence of HTRA2, O43464 (O43464 355-458): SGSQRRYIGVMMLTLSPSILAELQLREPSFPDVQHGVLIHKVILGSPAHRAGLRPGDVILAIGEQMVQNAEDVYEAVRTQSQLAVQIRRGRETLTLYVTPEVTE
Sequence of GRIP2_5, Q9C0E4 (Q9C0E4 544-642): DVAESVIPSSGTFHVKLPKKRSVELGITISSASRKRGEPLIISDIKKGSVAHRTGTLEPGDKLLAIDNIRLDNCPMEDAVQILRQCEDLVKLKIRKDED
Sequence of GRIP2_3, Q9C0E4 (Q9C0E4 238-339): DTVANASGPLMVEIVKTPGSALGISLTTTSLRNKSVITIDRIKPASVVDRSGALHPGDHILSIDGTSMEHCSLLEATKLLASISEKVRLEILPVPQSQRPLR
Sequence of AHNAK1, Q09666 (Q09666 4-100): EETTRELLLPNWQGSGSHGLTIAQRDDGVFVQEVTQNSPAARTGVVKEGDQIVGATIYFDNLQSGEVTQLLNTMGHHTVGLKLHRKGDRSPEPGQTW

B1: HPV73-E6, Q82005 (peptide)
chain: SGSRPSATVV
Consider B1, for which the pKd (commonly the Kd on a negative log10 scale, so that one unit is a factor of ten) is 4.13 in test [1] (setting [23]); “below the threshold” in [2] (setting [23]); “below the threshold” in [3] (setting [23]); “below the threshold” in test [4] (setting [23]); 3.54 in [5] (setting [23]); “below the threshold” in [6] (setting [23]). The pKd entry in test [7] (setting [23]) is “below the threshold”; in test [8] (setting [23]), 3.74; in test [9] (setting [23]), “below the threshold”; in test [10] (setting [23]) it was 4.98; in [11] (setting [23]), “below the threshold”; in test [12] (setting [23]) it was “below the threshold”. For the same molecule, the pKd result in test [13] (setting [23]) is “below the threshold”; in test [14] (setting [23]), “below the threshold”; in test [15] (setting [23]), “below the threshold”; in [16] (setting [23]), 3.61; in test [17] (setting [23]) it was “below the threshold”; in test [18] (setting [23]), 3.57. The pKd in test [19] (setting [23]) was 3.61; in test [20] (setting [23]) it was “below the threshold”; in test [21] (setting [23]), “below the threshold”; in test [22] (setting [23]), “below the threshold”.

B2: LNX2, Q8N448 (peptide)
chain: TVICWPGSLV
In the case of B2, the pKd in [1] (setting [24]) is 4.55; in test [2] (setting [24]), 4.42; in test [3] (setting [24]), “below the threshold”; in test [4] (setting [24]), “below the threshold”; in test [5] (setting [24]), 3.96; in test [6] (setting [24]), 4.59. Moreover, the pKd entry is “below the threshold” in test [7] (setting [24]); 3.9 in [8] (setting [24]); 3.5 in [9] (setting [24]); 4.32 in test [10] (setting [24]); “below the threshold” in [11] (setting [24]); “below the threshold” in [12] (setting [24]). The pKd result in test [13] (setting [24]) was “below the threshold”; in [14] (setting [24]), “below the threshold”; in [15] (setting [24]), “below the threshold”; in test [16] (setting [24]), 4.24; in [17] (setting [24]) it was “below the threshold”; in [18] (setting [24]), “below the threshold”. Also, the pKd result in [19] (setting [24]), in [20] (setting [24]), in [21] (setting [24]) and in test [22] (setting [24]) was “below the threshold” each time.

B3: OTULIN, Q96BN8 (peptide)
chain: PVRVCEETSL
In the case of B3, the pKd result is “below the threshold” in [1] (setting [23]); “below the threshold” in [2] (setting [23]); “below the threshold” in test [3] (setting [23]); “below the threshold” in [4] (setting [23]); 4.53 in [5] (setting [23]); 4.37 in [6] (setting [23]). The negative logarithm of the Kd (pKd) result was “below the threshold” in test [7] (setting [23]); “below the threshold” in test [8] (setting [23]); “below the threshold” in test [9] (setting [23]); “below the threshold” in test [10] (setting [23]); 3.59 in test [11] (setting [23]); “below the threshold” in test [12] (setting [23]). Further, the pKd result in test [13] (setting [23]) is “below the threshold”; in test [14] (setting [23]) it was 3.58; in test [15] (setting [23]), 3.78; in test [16] (setting [23]), 3.95; in [17] (setting [23]), “below the threshold”; in test [18] (setting [23]) it was “below the threshold”. Further, the pKd result in test [19] (setting [23]) was “below the threshold”; in test [20] (setting [23]), “below the threshold”; in [21] (setting [23]) it was 3.69; in test [22] (setting [23]) it was 3.57.

B4: SARS-CoV2-E, P0DTC4 (peptide)
chain: NLNSSRVPDLLV
Turning to B4, the pKd entry in [1] (setting [25]), in test [2] (setting [25]), in test [3] (setting [25]), in test [4] (setting [25]), in test [5] (setting [25]) and in test [6] (setting [25]) was “below the threshold” in each case. The pKd entry is “below the threshold” in test [7] (setting [25]); “below the threshold” in test [8] (setting [25]); “below the threshold” in test [9] (setting [25]); 4.46 in test [10] (setting [25]); “below the threshold” in [11] (setting [25]); 5.52 in test [12] (setting [25]). The pKd entry in test [13] (setting [25]), in test [14] (setting [25]), in [15] (setting [25]), in test [16] (setting [25]), in [17] (setting [25]) and in test [18] (setting [25]) was “below the threshold” in each case. Also, the pKd entry in test [19] (setting [25]), in test [20] (setting [25]), in [21] (setting [25]) and in test [22] (setting [25]) was “below the threshold” throughout.
